Target: CD16.7-PC1-WT (human) (UniProt P08637)
Test: co-IP

fold coprecipitation above the background of untransfected cell lysates	Substance
2 fold	Rab8, human, endogenous (from UniProt P61006 1-207) (natural protein)
1.3 fold	Rab11, human, endogenous (from UniProt P62491 1-216) (natural protein)

From publication PMC3172256
